Measured values taken from US20240226186A9, “OBLIGATE ANAEROBIC HUMAN INTESTINAL MICROBE FOR CANCER TREATMENT, AND USE THEREOF” (HEALTHBIOME, priority 2019, published 2024).

Legend:
[1] = test system: MC38 colorectal cancer cells; test: Tumor growth in mice inoculated with MC38 colorectal cancer cells; assay type: in vivo, C57BL/6 JAX mice; details: administered 5 times until day 16 with 2-day intervals from day 5 (FIG. 19)
Excerpt: 6- to 8-week old male C57BL/6J JAX and BALB/c mice purchased from Daehan Biolink were used. Each of the mice was housed in a cage and was maintained under a controlled environment (12-hour light/dark cycle, light-off at 7 pm) with free access to feed and water ad libitum. Tumorigenesis was induced by injecting pancreatic cancer cells (Panc02), melanoma cells (B16F10), glioma cells (GL261), sarcoma cells (MCA205) colorectal cancer cells (MC38) and lung cancer cells (LLC) to the C57BL/6 JAX mice and injecting colorectal cancer cells (CT26) to the BALB/c mice. Specifically, 1×10^7 cells/100 μL of Panc02, 2×10^5 cells/100 μL of B16F10, 5×10^5 cells/100 μL of GL261, 5×10^5 cells/100 μL of MCA205, 5×10^5 cells/100 μL of MC38, 5×10^5 cells/100 μL of LLC or 5×10^5 cells/100 μL of CT26 tumor cells were subcutaneously injected to the mice. Tumor size was measured with 2- or 3-day intervals until the end of the experiment, and tumor volume was calculated as length×width^2×0.5. In order to investigate the change in tumor size and immune environment owing to HB03 and its fragment, intestinal contents were recovered, immersed in liquid nitrogen and then kept at −80° C. All animal experimental procedures were approved by the Animal Care and Use Committee of Korea Research Institute of Bioscience and Biotechnology. […]

[2] = test system: colorectal cancer cells (CT26); test: MTT assay, proliferation of colorectal cancer cells; assay type: cell-based; details: CT26, 0.1, 1.0 or 10 μg/mL for 48 hours, 2-DG 20 mM (FIG. 18A)
Procedure: (§1) Then, it was investigated whether the purified HB03-01 and HB03-03 proteins affect the proliferation or apoptosis of cancer cells. Specifically, after treating colorectal cancer cells (CT26) and lung cancer cells (LLC) with the HB03-derived protein HB03-01 at concentrations of 0 (untreated), 0.1, 1.0 or 10 μg/mL or with HB03-03 at 10 μg/mL, the proliferation of the cancer cells and the activity of the apoptosis-regulating enzyme caspase-3 were investigated.
(§2) MTT assay was conducted to investigate the change in the proliferation of the cancer cells. The cancer cells were cultured using a DMEM medium (Gibco, USA) for 24 hours on a 96-well plate at 1×10^4 cells/well in a 5% CO2 incubator at 37° C. A low-glucose condition was maintained by treating with 2-deoxyglucose (2-DG) to a final concentration of 20 mM. After culturing for 6 hours, HB03-01 was treated at a concentration of 0, 0.1, 1.0 or 10 μg/mL for 48 hours. After adding 10 μL of an MTT solution, the cells were cultured further for 2 hours. After removing the medium from the 96-well plate and dissolving a formazan formed on the plate with 100 μL of DMSO, absorbance was measured at 540 nm using an ELISA reader (Model 680, BioRad). A control group was treated with 0 μg/mL HB03-01 (untreated), and the measurement values were represented as relative cell survivability (%) with respect to the number of cells in the control group as 100%.

lung cancer cells (LLC) = test: MTT assay, proliferation of lung cancer cells; assay type: cell-based; details: LLC, 0.1, 1.0 or 10 μg/mL for 48 hours, 2-DG 20 mM (FIG. 18B)
Procedure: as §1, §2

caspase-3 = test: Western blot of caspase-3 activity level in lung cancer cells; assay type: cell-based; details: LLC lung cancer cells, 10 μg/mL for 24 hours (FIG. 18C)
Procedure: as §1
Western blot was conducted to investigate the activity level of caspase-3. Lung cancer cells treated with 10 μg/mL of HB03-01 or HB03-03 for 24 hours were homogenized in an ice-cold 20 mM Tris-HCl buffer (pH 7.5) containing 2 mM EDTA (ethylenediaminetetraacetic acid), 0.5 mM EGTA (ethylene glycol tetraacetic acid), 300 mM sucrose and 2 mM PMSF (phenylmethylsulfonyl fluoride). After electrophoresing 50 μg of proteins on 15% SDS-PAGE (sodium dodecyl sulfate-polyacrylamide gel electrophoresis) gel, they were transferred onto a PVDF (polyvinylidene fluoride) membrane using a semidry transfer system (Hoefer, Holliston, MA, USA). Non-specific binding was blocked by incubating with 5% non-fat dry milk. […] The immune complexes were detected using an ECL detection kit (Amersham Biosciences Korea, Seoul, Korea) and auto-radiographed onto an X-ray film. […]

Molecule	Tumor growth vs control group, post-treatment with HB03-derived protein [1]	Proliferation of colorectal cancer cells (relative cell survivability) [2]	Proliferation of lung cancer cells (relative cell survivability) (lung cancer cells (LLC))	Activation of apoptosis-regulating enzyme (caspase-3) (caspase-3)
HB03-01: protein produced by the HB03 strain, SEQ ID NO 1, overexpressed in E. coli and purified (protein, HB03-01) IVNSKRSELDKKISIAAKEIKSANAAEITPSRSSNEELEKELNRYAKAVGSLETAYKPFLASSALVPTTPTAFQNELKTFRDSLISSCKKKNILITDTSSWLGFQVYSTQAPSVQAASTLGFELKAINSLVNKLAECGLSKFIKVYRPQLPIETPANNPEESDEADQAPWTPMPLEIAFQGDRESVLKAMNAITGMQDYLFTVNSIRIRNERMMPPPIANPAAAKPAAAQPATGAASLTPADEATAPAAPAIQQVIKPYMGKEQVFVQVSLNLVHFNQPKAQEPSED	significantly inhibit tumor growth	significantly decreased	significantly decreased	activated
HB03-03: protein produced by the HB03 strain, SEQ ID NO 2, overexpressed in E. coli and purified (protein, HB03-03) IPESSVPAAAVSSVKGAYPNAGPIEWDSEMHGMERIYEAEFRINGFQFDVKIAPDGKIVRIKEEIAASSLPEAVRASVLKRYPGCRIKEAEKITEGELVRYKVEVADSRDDYDVLIAPDGNILHVDR	significantly inhibit tumor growth			activated
